Measurements reported in patent US20150125397A1, “DUAL SPECIFIC BINDING PROTEINS DIRECTED AGAINST IMMUNE CELL RECEPTORS AND AUTOANTIGENS” (ABBVIE INC., priority 2013, published 2015).
Entries after “also recorded” stand apart in the source; their conditions may differ.

T1: mIgM (Mus musculus, UniProt P01872)
T1 sequence (P01872 1-454): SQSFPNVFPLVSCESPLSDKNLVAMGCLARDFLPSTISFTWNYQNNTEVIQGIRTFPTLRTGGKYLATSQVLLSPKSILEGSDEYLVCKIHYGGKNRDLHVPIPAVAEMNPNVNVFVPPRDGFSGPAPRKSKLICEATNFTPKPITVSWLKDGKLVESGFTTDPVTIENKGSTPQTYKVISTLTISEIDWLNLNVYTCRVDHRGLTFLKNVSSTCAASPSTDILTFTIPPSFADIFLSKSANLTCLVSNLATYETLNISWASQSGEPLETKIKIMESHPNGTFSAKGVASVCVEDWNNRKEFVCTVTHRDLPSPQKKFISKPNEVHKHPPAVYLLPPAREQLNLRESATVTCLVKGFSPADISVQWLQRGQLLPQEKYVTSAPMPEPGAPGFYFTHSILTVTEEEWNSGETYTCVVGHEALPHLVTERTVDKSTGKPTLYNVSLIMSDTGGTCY

B1: DVD3759: DVD-Ig: VD1 mIgM (B7.6), SL linker, VD2 DNA(PA4); heavy SEQ ID NO 64, light 65 (antibody)
heavy: QVQLKESGPGLVKPSLTLSLTCTVSGFSLNGYGVIWVRQPPGKGLEWMGVIWGNGNTNYNSTLKSRLSISRDTSKSQVFLKMNNLQTEDTAMYFCARSENYYSSPGYFAYWGQGTLVTVSSASTKGPEVQLVESGGGLVKPGGSLKLSCVASGFTFSTYAMSWVRQTPTKRLEWVATISRGGVSTYYPDTVKGRFTISRDNAKNTLYLQMSSLRSEDTAMYYCARPPTIVTTWFAYWGQGTLVTVSS
light: NTVMTQSPTSMFISVGDRVTMNCKASQNVGSDVDWYQQKTGQSPKLLISGTSNRYTGVPDRFTGSGSGTDFTLTISNMQAEDLAVYYCLQYNYNPTFGAGTKLELKRTVAAPSVFIFPPDVVMTQTPLSLPVSLGDQASISCRSSQSLVHSNGNTYLHWYLQKPGQSPKLLIYKVSNRFSGVPDRFSGSGSGTDFTLKISRVEAEDLGAYFCSQSTHVPYTFGGPTRLEIKR
B2: DVD3754: DVD-Ig: VD1 DNA(PA4), SL linker, VD2 mIgM (B7.6); heavy SEQ ID NO 54, light 55 (antibody)
heavy: EVQLVESGGGLVKPGGSLKLSCVASGFTFSTYAMSWVRQTPTKRLEWVATISRGGVSTYYPDTVKGRFTISRDNAKNTLYLQMSSLRSEDTAMYYCARPPTIVTTWFAYWGQGTLVTVSSASTKGPQVQLKESGPGLVKPSLTLSLTCTVSGFSLNGYGVIWVRQPPGKGLEWMGVIWGNGNTNYNSTLKSRLSISRDTSKSQVFLKMNNLQTEDTAMYFCARSENYYSSPGYFAYWGQGTLVTVSS
light: DVVMTQTPLSLPVSLGDQASISCRSSQSLVHSNGNTYLHWYLQKPGQSPKLLIYKVSNRFSGVPDRFSGSGSGTDFTLKISRVEAEDLGAYFCSQSTHVPYTFGGPTRLEIKRTVAAPSVFIFPPNTVMTQSPTSMFISVGDRVTMNCKASQNVGSDVDWYQQKTGQSPKLLISGTSNRYTGVPDRFTGSGSGTDFTLTISNMQAEDLAVYYCLQYNYNPTFGAGTKLELKR

What was measured:
mIgM = biological target: T1, mIgM; test: IgM binding ELISA (mouse IgM); conditions: for IgM Binding EC50: mIgM-coated ELISA, half-log dilution 10 μg/ml-0.01 μg/ml
Method: Reactivity of the DVD-Ig proteins with mIgM was determined by enzyme-linked immunosorbent assay (ELISA). Briefly, each well of an Ultra Cruz 96 well microtiter plate (Santa Cruz Biotechnology, Dallas, Tex.) was coated with mIgM at a concentration of 1 μg/ml in 100 μl of PBS. The plate was covered in plastic wrap and incubated overnight at 4° C. Each well of the plate was then washed 3× with 300 μl of PBST. After the final wash, 200 μl of blocking buffer (1% BSA in PBS) was added to each well and the plate incubated at RT for 2 hours. The plate was then washed as above. Rows B-H of the microtiter plate were filled with 100 μl of dilution buffer (1% BSA in PBST). The DVD-Ig proteins were then diluted to […] in dilution buffer and 147 μl of a DVD-Ig protein was added in duplicate to row A of a 96 well plate. For a ½ log dilution, 47 μl was transferred from row A to row B. The pipette tips were replaced with clean tips and 47 μl from row B was transferred to row C. The serial transfers were repeated as above until row G. To assess the binding of the secondary detection reagent to the coated IgM, the final transfer 47 μl was only transferred from G1-G10 to H1-H10 and wells H11 and H12 were left containing 100 μl of dilution buffer. To maintain a 100 μl assay volume, 47 μl was removed from wells H1-H10 and G11-G12 and discarded. After the serial dilution was completed, the plate was incubated for 1-2 hours at RT. The plate was washed as above and then 100 μl of horseradish peroxidase conjugated goat α-hIgG Fc specific, diluted 1:3,000 in dilution buffer, was added to each well. The plate was incubated for 1 hour at RT and then washed 4× as above. The plate was developed by adding 100 μl of 3′,3′,5′,5′-Tetramethylbenzidine (TMB) substrate solution to each well and incubating the plate in the dark for 10-15 minutes. The enzymatic reaction was stopped by adding 100 μl of 1M H2SO4 to each well. The plate was read at 450 nm on an EnVision 2102 multilabel reader (Perkin Elmer, Waltham, Mass.).
DVD-Ig proteins DVD3751-DVD3760 were characterized by IgM binding assay at half-log dilution starting at 10 μg/ml-0.01 μg/ml according to the method of Example 2.5.
IgM binding ELISA: Titrations of the DVD-Ig™ proteins (10 μg/ml to 0.01 μg/ml) were added to ELISA plates coated with murine IgM. Bound antibody was detected with biotinylated anti-human IgG and streptavidin-HRP. EC50 were calculated from the titration curve using Prism6.

BALB/c B cells = test: Proliferation of B220+ B cells, non-Tg BALB/c; type: cell-based, mouse; conditions: 3H-thymidine 24 hours, CFSE 72 hours; FIG. 8D, 9
Method: (§1) Proliferation of B220+ B cells: B cells were purified by magnetic bead separation using CD45R/B220-conjugated magnetic particles (BD Biosciences, San Jose, Calif., USA) and stimulated as described previously (Nundel et al. (2013) J. Leukoc. Biol. 94:865-875) with 15 μg/ml goat anti-mouse IgM F(ab′)2 (Jackson ImmunoResearch), ODN1826 (CpG; Idera Pharmaceuticals), anti-DNA-mAb (Leadbetter et al. (2002) Nature 416:603-607), or DVD-Ig proteins (1 μg/ml). B cell proliferation was assessed by ^3H-thymidine (Amersham Biosciences, Piscataway, N.J., USA) incorporation at 24 hours post-stimulation. For long-term proliferation assays, B220-purified B cells were labeled with a final concentration of 2.5 μM CFSE (Life Technologies) in PBS for 2 minutes. The cells were then washed and cultured for 72 hours in the presence of BLyS (Human Genome Sciences).
(§2) FACS for B cells: Multicolor flow cytometry analysis was carried out using a BD LSR II with DIVA software (BD Biosciences). Analysis was conducted with FlowJo software (Tree Star, Ashland, Oreg., USA) Immature and mature B cell ratios were determined using Pacific Blue-B220 and APC-AA4.1 (eBioscience). Dead cells and debris were excluded by forward- and side-scatter. Proliferation was assessed by CFSE dilution. Cell death was ascertained using the DNA stain TO-PRO-3 (Life Technologies) at a final concentration of 20 nM.

RF B cells = test: Proliferation of B220+ B cells, RF (AM14); type: cell-based, mouse
Method: as §1, §2

[1] = test system: RF Tlr9−/− or BALB/c Tlr9−/− B cells; test: Proliferation of B220+ B cells, Tlr9-/-; type: cell-based, mouse; conditions: 3H-thymidine 24 hours, CFSE 72 hours; FIG. 9
Method: as §1, §2

[2] = test system: Dnase2−/− Ifnar1−/− DKO B cells; test: 3H-thymidine incorporation of B220-purified B cells, DKO; type: cell-based, mouse; conditions: 24 hours, FIG. 10C
Source text: (§3) Mice: RF and Tlr-9^−/− mice have been described previously (Uccellini et al. (2008) J. Immunol. 181:5875-5884), The DNase II-deficient mice on a C57BL/6 background were kindly provided by Dr. S, Nagata and obtained from the RIKEN Institute. […] and Unc93B1-deficient mice were obtained from Jackson Lab. DnaseII^−/− Ifnar1^−/− (Het), DnaseII^−/− Ifnar1−/− (DKO), and DnaseII^−/− Unc93b1^−/− (TKO), were bred at UMMS. All mice were maintained at the Department of Animal Medicine of the University of Massachusetts Medical School in accordance with the regulations of the American Association for the Accreditation of Laboratory Animal Care.
as §1, with “The cells were then washed and cultured for 72 hours in the presence of BLyS (Human Genome Sciences).” left out

[3] = test system: Dnase2−/− Ifnar1−/− Unc93b1−/− TKO B cells; test: 3H-thymidine incorporation of B220-purified B cells, TKO; type: cell-based, mouse; conditions: 24 hours, FIG. 10C
Source text: as §3
as §1, with “The cells were then washed and cultured for 72 hours in the presence of BLyS (Human Genome Sciences).” left out

Molecule	potency in IgM binding assay (mIgM; among DVD3751-DVD3760)	IgM Binding EC50 (mIgM) [µg/mL]	IgM binding by direct binding ELISA (mIgM; Example 6, FIG. 8B)	activation / proliferation of non-Tg BALB/c B cells (BALB/c B cells)	level of activation compared with anti-DNA mAb (RF B cells; FIG. 9A,B)	activation / proliferation of RF B cells (RF B cells; Tlr9+/+, 3H-thymidine 24 hours, CFSE 72 hours, FIG. 9)	proliferation of Tlr9−/− B cells [1]	response of DKO B cells [2]	response of TKO B cells [3]
B1	highest potency	0.04116							
B2		0.1167	intermediate IgM binding affinity	stimulated BALB/c B cells more strongly than the rest; also recorded: induced both RF and non-Tg BALB/c B cells	comparable	induced both RF and non-Tg BALB/c B cells	not RF Tlr9^−/− or BALB/c Tlr9^−/− B cells	failed to respond	failed to respond
